Results on 1 molecule are retold here after patent publication US20160266136A1 (Stanford University, published 2016).

Test [1] deals with T1, mouse Gas6 (mouse, UniProt Q61592 46-674, limits assumed).
T1 construct: Used both for the KinExA value against mouse Gas6 and for the endogenous Gas6 in the serum of the nude mice; also called Gas6 (in serum of mice)
T1 sequence (looked up): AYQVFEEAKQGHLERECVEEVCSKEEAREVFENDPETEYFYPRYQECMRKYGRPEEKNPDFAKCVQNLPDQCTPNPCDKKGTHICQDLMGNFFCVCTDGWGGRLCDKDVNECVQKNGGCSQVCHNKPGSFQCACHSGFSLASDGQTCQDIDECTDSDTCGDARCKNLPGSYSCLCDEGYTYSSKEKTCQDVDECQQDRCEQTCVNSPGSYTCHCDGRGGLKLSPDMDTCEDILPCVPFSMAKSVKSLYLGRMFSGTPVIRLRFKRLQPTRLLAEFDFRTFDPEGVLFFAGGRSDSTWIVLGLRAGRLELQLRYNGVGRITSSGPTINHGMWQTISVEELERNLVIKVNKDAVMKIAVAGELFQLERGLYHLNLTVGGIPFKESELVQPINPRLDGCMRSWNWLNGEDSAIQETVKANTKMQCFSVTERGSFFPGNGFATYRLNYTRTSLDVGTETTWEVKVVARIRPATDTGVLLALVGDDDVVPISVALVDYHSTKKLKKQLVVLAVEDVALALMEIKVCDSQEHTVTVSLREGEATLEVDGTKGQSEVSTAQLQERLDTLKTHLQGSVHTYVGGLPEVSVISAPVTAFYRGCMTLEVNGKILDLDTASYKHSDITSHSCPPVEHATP
The experiment in a line: KinExA; column Kd(pM) mGas6.
Method: (§1) A KinExA 3200 instrument (Sapidyne Instruments Inc.) was used to measure equilibrium binding and association rate constants for the Gas6-Axl interactions. […] Adsorption coating of 200 mg of beads was performed using 45 μg of protein at room temp for 1 h. The protein solution was then removed and beads were blocked using PBS with 1% BSA for 2 h at room temp. Beads were stored in blocking buffer at 4° C. and used within two weeks. All binding reactions were carried out in phosphate buffered saline with 1 mg/ml BSA and 0.02% sodium azide.
(§2) For equilibrium binding studies, three independent titrations were completed for each Axl Ig1 or Axl Fc fusion unless otherwise noted. […] Each sample was analyzed twice and data from the three independent equilibrium binding experiments were globally analyzed using n-curve analysis in the KinExA Pro 3.6.2 software (Sapidyne Instruments Inc.) to obtain the Kd value.

In test [2] the target is T1, mouse Gas6. The experiment in a line: KinExA.
Method: as §1, §2
Test [3] deals with T2, Protein S (OriGene) (UniProt P07225 42-676).
T2 construct: Carries a c-Myc tag by the detection used
T2 sequence (looked up): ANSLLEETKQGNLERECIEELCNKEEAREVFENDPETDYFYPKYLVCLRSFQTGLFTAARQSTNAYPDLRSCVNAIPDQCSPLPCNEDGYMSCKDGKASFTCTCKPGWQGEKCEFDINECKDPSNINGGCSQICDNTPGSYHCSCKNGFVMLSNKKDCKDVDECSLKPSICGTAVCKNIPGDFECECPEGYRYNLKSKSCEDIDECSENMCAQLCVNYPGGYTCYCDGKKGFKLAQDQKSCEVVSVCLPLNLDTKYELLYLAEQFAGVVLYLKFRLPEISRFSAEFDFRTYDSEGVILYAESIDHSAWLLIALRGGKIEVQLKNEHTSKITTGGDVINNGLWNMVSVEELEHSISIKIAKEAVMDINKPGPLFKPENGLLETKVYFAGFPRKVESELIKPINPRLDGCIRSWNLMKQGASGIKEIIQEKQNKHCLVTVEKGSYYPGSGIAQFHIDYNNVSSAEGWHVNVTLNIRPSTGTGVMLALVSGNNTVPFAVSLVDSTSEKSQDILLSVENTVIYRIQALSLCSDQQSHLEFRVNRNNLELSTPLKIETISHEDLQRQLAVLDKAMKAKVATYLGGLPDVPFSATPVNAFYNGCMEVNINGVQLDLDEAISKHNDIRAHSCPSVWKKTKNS
The experiment in a line: KinExA signal test on MYD1 Fc coated beads, Protein S probed with an anti-c-Myc antibody.
Method: as §1
To test binding of Protein S (OriGene) to MYD1, 700 μl of a 10 nM solution was flowed over the capture beads.

B1: MYD1 Fc (Fc fusion)
chain: APRGTQAEESPFVSNPGNITGARGLTGTLRCQLQVQGEPPEVHWLRDGQILELADSTQTQVPLGEDEQGDWIVASQLRITSLQLSDTGQYQCLVFLGHQTFVSQPGYVRLEGLPYFLEEPEDRTVAANTPFNLSCQAQGPPEPVDLLWLQDAVPLATAPGHGPQRSLHVPGLNKTSSFSCEAHNAKGVTTSRTATITVLPQQPRNLHLVSRQPTELEVAWTPGLSGIYPLTHCTLQAVLSNDGMGIQAGEPDPPEEPLTSQASVPPHQLRLGSLHPHTPYHIRVACTSSQGPSSWTHWLPVETPEGVPLGPPENISATRNGSQAFVHWQEPRAPLQGTLLGYRLAYQGQDTPEVLMDIGLRQEVTLELQGDGSVSNLTVCVAAYTAAGDGPWSLPVPLEAWRPGQAQPVHQLVKEPSTPAFS
notes: Disulfide-linked dimer from HEK cells; also the capture reagent on the KinExA beads; also called MYD1 Fc fusion; not shown: Fc domain of a human IgG1
Consider B1, for which the results for the Kd in test [1] and in test [2] were 1.1 pM and approximately 1 pM, respectively. In test [3], the binding result was “no binding (tested: 10 nM)”.
